{"source": "patent US8241627B2", "about": "“Modified polypeptides stabilized in a desired conformation and methods for producing same” (The Center for Blood Research, Inc., priority 2000, dated 2012)", "type_in_all_cases": "cell-based", "key": {"ICAM-1": {"biological_target": "T1, ICAM-1 (Homo sapiens, UniProt P05362)", "T1 construct": "ICAM-1 was purified from human tonsil; from tissue; host or cells: human tonsil", "T1 sequence (P05362 28-532)": "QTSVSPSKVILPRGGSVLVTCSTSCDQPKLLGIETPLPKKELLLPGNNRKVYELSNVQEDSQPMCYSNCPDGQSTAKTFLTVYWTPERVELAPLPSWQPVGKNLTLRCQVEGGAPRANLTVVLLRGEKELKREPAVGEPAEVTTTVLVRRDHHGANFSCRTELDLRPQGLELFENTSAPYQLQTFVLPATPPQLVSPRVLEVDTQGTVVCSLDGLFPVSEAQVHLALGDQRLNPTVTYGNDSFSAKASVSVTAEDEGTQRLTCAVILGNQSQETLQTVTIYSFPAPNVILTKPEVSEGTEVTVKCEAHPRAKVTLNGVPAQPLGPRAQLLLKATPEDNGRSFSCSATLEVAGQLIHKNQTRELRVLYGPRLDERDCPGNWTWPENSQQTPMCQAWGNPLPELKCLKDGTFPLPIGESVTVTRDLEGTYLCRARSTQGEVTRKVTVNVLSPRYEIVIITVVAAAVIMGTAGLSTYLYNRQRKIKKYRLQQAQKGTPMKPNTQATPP", "test": "Binding of LFA-1 or isolated I-domain transfectants to immobilized ICAM-1", "details": "for binding of 293T transient transfectants to immobilized ICAM-1: no activating antibody", "procedure": "Clones of the transfectants that expressed similar levels of cell surface LFA-1, as determined by flow cytometry using monoclonal antibody TS2/4 (FIG. 3B), were tested for their ability to bind to immobilized ICAM-1, as previously described (Lu, C and Springer, T A (1997) J Immunol 159:268-278).\n(§1) Briefly, ICAM-1 was purified from human tonsil, and coated to 96-well plates as described previously (Lu, C and Springer T A, (1997) J Immunol 159:268-278). Cells were labeled with a florescence dye 2′,7′-bis-(carboxyethyl)-5(and-6)-carboxyfluorescein, acetoxymethyl ester (BCECF-AM), and resuspended to 1×10^6/ml in L15/FBS. 50 μl cell suspension was mixed in ICAM-1 coated wells with an equal volume of L15/FBS in the absence or presence of monoclonal antibody (CBRLFA-1/2, 10 μg/ml). Monoclonal antibodies were used at final concentration of 1:20 hybridoma supernatant, 1:200 ascites, or μg/ml purified IgG. For testing the effect of divalent cations, BCECF-AM-labeled cells were washed 2× with TS buffer, pH7.5 (20 mM Tris, pH 7.5, 150 mMNaCl) containing 5 mM EDTA, followed by 2 washes with TS buffer, pH7.5. Cells were then resuspended to 5×10^5/ml in the TS buffer, pH7.5 supplemented with 1 mM MgCl2/CaCl2, MgCl2, MnCl2 mM EDTA, and 100 μl cell suspension was added to ICAM-1 coated wells. After incubation at 37° C. for 30 minutes, unbound cells were washed off on a Microplate Autowasher (Bio-Tek Instruments, Winooski, Vt.). The fluorescence content of total input cells and the bound cells in each well was quantitated on a Fluorescent Concentration Analyzer (IDEXX, Westbrook, Me.). The bound cells were expressed as a percentage of total input cells per sample well.\nFor generating stable K562 transfectants that express the I-domain on the surface, 20 μg of SspI-linearized pcDNA3.1/Hygro(+) containing the sequences encoding the I domain and the PDGFR transmembrane domain was used to transfect K562 cells by electroporation as described above. Transfectants were selected for resistance to 100 μg/ml hygromycin B, and were further subcloned by cell sorting and limiting dilution; clones that expressed similar levels of surface wild-type and mutant I domain-PDGFR were selected for functional studies. Stable cell lines were maintained in RPMI medium 1640 supplemented with 10% FBS and 100 μg/ml hygromycin B. Cell surface expression of the isolated I-domains was determined by flow cytometry using antibody TS1/22 to the I-domain (FIG. 7). Two clones from each transfectant were selected and tested for binding to immobilized ICAM-1, and similar results were obtained with each of the two clones (FIG. 8A).\nIf the constitutive ligand binding activity of mutant K287C/K294C is due to the formation of a disulfide bond between the introduced C287 and C294, disruption of the disulfide bond with a reducing agent would abolish ligand binding ability of the mutant. Accordingly, the transfectants were treated with the reducing agent DTT (10 mM) in L15/FBS containing Mg^2+ and Ca^2+, and the ability of transfectants to bind to ICAM-1 was assessed.\nFurthermore, the effect of divalent cations on ligand binding of the isolated I-domains expressed on the surface of K562 transfectants was tested. The binding reactions were performed in HEPES/NaCl/glucose (20 mM HEPES, pH 7.5, 140 mM NaCl, 2 mg/ml glucose) supplemented with 1 mM […], 1 mM Mg^2+, or 1 mM EDTA."}, "wild-type LFA-1": {"biological_target": "T2, wild-type LFA-1 (Homo sapiens, UniProt P20701)", "T2 construct": "expressed in transfected cells", "T2 sequence (P20701 26-1170)": "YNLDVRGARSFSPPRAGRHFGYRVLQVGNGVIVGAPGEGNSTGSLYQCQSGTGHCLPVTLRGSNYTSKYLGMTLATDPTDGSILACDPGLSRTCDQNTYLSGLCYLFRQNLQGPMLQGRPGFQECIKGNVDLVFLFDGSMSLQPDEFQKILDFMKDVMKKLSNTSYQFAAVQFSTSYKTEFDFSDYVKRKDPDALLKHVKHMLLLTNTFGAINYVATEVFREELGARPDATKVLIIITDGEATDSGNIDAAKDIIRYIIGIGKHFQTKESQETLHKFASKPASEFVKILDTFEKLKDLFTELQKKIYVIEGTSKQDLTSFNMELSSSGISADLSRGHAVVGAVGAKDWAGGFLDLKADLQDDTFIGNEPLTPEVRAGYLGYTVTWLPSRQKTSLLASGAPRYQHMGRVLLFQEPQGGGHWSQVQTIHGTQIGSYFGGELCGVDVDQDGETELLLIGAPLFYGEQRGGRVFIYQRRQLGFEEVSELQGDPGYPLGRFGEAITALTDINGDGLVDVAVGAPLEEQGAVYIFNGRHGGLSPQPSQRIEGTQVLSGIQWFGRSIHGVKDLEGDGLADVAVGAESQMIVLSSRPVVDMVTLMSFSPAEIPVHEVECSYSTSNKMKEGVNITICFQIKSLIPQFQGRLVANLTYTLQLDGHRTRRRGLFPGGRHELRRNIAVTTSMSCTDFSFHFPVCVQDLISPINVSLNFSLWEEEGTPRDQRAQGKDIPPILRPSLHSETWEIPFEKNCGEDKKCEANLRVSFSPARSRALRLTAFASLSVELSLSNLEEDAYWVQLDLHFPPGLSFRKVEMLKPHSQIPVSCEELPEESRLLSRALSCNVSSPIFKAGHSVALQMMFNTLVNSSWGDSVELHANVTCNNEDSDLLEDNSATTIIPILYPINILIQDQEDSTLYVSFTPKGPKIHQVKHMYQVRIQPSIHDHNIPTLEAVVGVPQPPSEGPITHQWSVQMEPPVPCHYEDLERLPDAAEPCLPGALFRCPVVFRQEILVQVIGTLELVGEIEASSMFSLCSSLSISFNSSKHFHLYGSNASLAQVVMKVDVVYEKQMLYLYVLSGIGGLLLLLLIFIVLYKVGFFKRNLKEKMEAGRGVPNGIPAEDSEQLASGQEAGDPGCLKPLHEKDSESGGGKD", "T2 sequence (P05107 23-769 partner)": "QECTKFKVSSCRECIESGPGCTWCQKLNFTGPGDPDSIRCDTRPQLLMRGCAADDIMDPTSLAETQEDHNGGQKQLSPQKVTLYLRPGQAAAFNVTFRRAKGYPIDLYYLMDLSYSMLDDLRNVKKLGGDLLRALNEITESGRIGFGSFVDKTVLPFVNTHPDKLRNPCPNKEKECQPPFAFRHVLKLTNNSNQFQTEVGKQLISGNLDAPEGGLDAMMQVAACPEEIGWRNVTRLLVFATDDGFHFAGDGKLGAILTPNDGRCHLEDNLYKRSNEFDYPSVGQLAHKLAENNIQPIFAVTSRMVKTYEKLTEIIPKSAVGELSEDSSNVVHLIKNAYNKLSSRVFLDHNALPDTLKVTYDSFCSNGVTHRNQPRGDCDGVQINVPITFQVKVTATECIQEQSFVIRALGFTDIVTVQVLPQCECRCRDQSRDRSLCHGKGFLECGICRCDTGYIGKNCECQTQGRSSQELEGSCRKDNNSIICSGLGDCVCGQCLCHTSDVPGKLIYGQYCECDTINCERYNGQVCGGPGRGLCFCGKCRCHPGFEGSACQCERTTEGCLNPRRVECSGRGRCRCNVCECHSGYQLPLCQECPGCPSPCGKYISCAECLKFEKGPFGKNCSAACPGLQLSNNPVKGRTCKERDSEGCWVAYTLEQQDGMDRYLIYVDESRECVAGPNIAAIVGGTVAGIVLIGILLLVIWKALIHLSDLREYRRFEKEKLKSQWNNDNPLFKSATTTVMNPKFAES", "test": "Inhibition of binding of wild-type LFA-1 transfectants to immobilized ICAM-1", "details": "lovastatin 0-50 μM; cells stimulated with Mn2+ or antibody CBRLFA1/2", "procedure": "as §1, with “Cells were then resuspended to 5×10^5/ml in the TS buffer, pH7.5 supplemented with 1 mM MgCl2/CaCl2, MgCl2, MnCl2 mM EDTA, and 100 μl cell suspension was added to ICAM-1 coated wells. After incubation at 37° C. for 30 minutes, unbound cells were washed off on a Microplate Autowasher (Bio-Tek Instruments, Winooski, Vt.).” left out, “well. […]” for “well.”\n(§2) The high affinity open I-domains of the invention can be used to discriminate between direct/competitive and indirect/non-competitive modes of inhibition of LFA-1. […] Accordingly, the ability of lovastatin to inhibit ligand binding of the high-affinity I-domain (K287C/K294C) was assessed. […]"}, "LFA-1 mutant K287C/K294C": {"biological_target": "T3, LFA-1 mutant K287C/K294C (Homo sapiens, UniProt P20701, K312C/K319C)", "T3 construct": "expressed in transfected cells", "T3 sequence (P20701 26-1170 K312C/K319C)": "as the sequence (P20701 26-1170) above, with K287C, K294C counted along it", "T3 sequence (P05107 23-769 partner)": "as the sequence (P05107 23-769 partner) above", "test": "Inhibition of binding of mutant K287C/K294C LFA-1 transfectants to immobilized ICAM-1", "details": "lovastatin 0-50 μM", "procedure": "as §1, with “Cells were then resuspended to 5×10^5/ml in the TS buffer, pH7.5 supplemented with 1 mM MgCl2/CaCl2, MgCl2, MnCl2 mM EDTA, and 100 μl cell suspension was added to ICAM-1 coated wells. After incubation at 37° C. for 30 minutes, unbound cells were washed off on a Microplate Autowasher (Bio-Tek Instruments, Winooski, Vt.).” left out, “well. […]” for “well.”\nas §2"}, "iC3b": {"biological_target": "T4, iC3b (Homo sapiens, UniProt P01024)", "T4 construct": "mutant to iC3b coated on plastic", "T4 sequence (P01024 23-667 limits assumed)": "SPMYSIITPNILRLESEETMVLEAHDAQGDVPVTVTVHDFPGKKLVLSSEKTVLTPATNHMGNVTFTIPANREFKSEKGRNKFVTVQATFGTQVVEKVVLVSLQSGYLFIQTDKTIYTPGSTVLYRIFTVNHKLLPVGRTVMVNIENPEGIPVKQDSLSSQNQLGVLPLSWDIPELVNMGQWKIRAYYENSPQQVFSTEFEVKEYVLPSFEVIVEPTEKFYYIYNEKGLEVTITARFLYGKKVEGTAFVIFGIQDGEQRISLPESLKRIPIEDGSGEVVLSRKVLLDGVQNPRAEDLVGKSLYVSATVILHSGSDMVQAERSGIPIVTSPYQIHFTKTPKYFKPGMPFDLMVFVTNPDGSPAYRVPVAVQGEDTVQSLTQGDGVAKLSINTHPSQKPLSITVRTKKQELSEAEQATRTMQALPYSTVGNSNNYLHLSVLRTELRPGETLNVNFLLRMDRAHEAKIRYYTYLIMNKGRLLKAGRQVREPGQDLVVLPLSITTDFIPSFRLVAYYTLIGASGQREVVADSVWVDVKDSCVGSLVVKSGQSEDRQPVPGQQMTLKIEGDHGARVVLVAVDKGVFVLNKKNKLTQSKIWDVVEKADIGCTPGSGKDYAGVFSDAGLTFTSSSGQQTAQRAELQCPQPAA", "T4 sequence (P01024 749-1303 limits assumed)": "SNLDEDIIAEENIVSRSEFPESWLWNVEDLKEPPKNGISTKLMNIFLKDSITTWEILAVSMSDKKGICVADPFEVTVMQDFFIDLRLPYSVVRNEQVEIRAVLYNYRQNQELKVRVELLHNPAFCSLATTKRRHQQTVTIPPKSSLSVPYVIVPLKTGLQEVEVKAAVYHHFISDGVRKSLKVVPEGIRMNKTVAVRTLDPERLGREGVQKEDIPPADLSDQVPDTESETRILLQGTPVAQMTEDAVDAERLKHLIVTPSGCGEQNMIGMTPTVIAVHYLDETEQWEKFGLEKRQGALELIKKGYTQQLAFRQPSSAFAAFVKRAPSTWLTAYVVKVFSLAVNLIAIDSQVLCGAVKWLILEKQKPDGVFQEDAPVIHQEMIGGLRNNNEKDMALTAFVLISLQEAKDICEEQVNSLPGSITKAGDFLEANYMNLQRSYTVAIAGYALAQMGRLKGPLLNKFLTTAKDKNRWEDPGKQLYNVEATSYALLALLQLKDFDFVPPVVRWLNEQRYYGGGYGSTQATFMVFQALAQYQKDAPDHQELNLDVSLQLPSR", "T4 sequence (P01024 1321-1663 limits assumed)": "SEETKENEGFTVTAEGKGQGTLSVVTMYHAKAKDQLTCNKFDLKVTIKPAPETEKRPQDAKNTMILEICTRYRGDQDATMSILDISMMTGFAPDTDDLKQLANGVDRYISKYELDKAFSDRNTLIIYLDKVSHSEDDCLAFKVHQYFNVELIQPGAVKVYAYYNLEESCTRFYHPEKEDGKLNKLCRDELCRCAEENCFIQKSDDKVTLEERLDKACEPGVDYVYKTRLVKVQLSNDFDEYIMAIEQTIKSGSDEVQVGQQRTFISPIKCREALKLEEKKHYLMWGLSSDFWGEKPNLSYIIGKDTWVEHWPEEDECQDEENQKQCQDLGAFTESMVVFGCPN", "test": "Adhesion of αMβ2 (Mac-1) or αM I-domain transfectants to immobilized iC3b", "description": "In order to assess the effect of the introduction of pairs of potentially disulfide bond-forming cysteines into the I-domain of αMβ2 on CBRM 1/5 activation-dependent epitope expression and ligand binding, plasmids encoding the wild-type or mutant αM subunits and the β2 subunit were co-transfected into 293T and K562 cells. α.β heterodimer formation was confirmed using monoclonal antibody CBRM1/32 which recognizes an epitope in the putative β-propeller domain of the αM subunit only after association with the β2 subunit, and antibody CBRM1/5 was used to detect integrin activation.\nAlternatively, isolated Mac-1 mutant I-domains were expressed on the cell surface in conjunction with an artificial signal sequence and transmembrane domain of the PDGF receptor. Adhesion was assayed in L15/FBS/MnCl2 at 37° C.\nIn a further study, the open I-domain mutants Q 163C/Q309C and D294C/Q311C were stably expressed in K562 cells, and clones expressing the same levels of receptors were selected. Adhesion assays to immobilized iC3b were performed with L15/FBS at 37° C.\nBinding of αMβ2 transfectants containing mutant I-domains to immobilized iC3b on plastic was tested in the presence and absence of DTT."}}, "data": [{"compound": "L289C: single cysteine substitution mutant of LFA-1 αL", "values": [{"measurement": "binding of 293T transient transfectants to immobilized ICAM-1 with activating mAb CBRLFA-1/2", "setting": "ICAM-1; 293T, CBRLFA-1/2 10 μg/ml", "result": "increased"}, {"measurement": "binding of 293T transient transfectants to immobilized ICAM-1", "setting": "ICAM-1; 293T", "result": "reduced binding"}]}, {"compound": "CC[C@H](C)C(=O)O[C@H]1C[C@@H](C)C=C2C=C[C@H](C)[C@H](CC[C@@H]3C[C@@H](O)CC(=O)O3)[C@H]21", "note": "[lovastatin]", "values": [{"measurement": "inhibition of ICAM-1 binding by cells expressing wild-type LFA-1", "setting": "wild-type LFA-1", "result": "inhibits"}, {"measurement": "interference with ligand binding by the high affinity open K287C/K294C mutant", "setting": "LFA-1 mutant K287C/K294C", "result": "does not interfere"}]}, {"compound": "wild-type LFA-1: wild-type human αL/β2 (LFA-1) expressed on 293T or K562 transfectants [reference compound]", "values": [{"measurement": "binding of 293T transient transfectants to immobilized ICAM-1", "setting": "ICAM-1; 293T", "result": "constitutively strong binding"}, {"measurement": "binding of K562 stable transfectants to immobilized ICAM-1 with activating mAb CBRLFA-1/2", "setting": "ICAM-1; K562, CBRLFA-1/2 10 μg/ml", "result": "greatly increased"}, {"measurement": "effect of Mn2+ and Mg2+ on binding of K562 transfectants to ICAM-1", "setting": "ICAM-1; K562, intact LFA-1, Mn2+ / Mg2+", "result": "greatly enhanced"}, {"measurement": "binding of K562 stable transfectants to immobilized ICAM-1", "setting": "ICAM-1; K562, no activating antibody", "result": "low basal binding"}, {"measurement": "effect of DTT treatment on binding to ICAM-1", "setting": "ICAM-1; K562 transfectants, DTT 10 mM in L15/FBS", "result": "increased binding"}]}, {"compound": "K294C: single cysteine substitution mutant of LFA-1 αL", "values": [{"measurement": "binding of 293T transient transfectants to immobilized ICAM-1", "setting": "ICAM-1; 293T", "result": "comparable to that of the wild-type"}]}, {"compound": "Wild type: wild-type αMβ2 (Mac-1) transfectant", "values": [{"measurement": "effect of DTT on binding of intact αMβ2", "setting": "iC3b; DTT", "result": "increased binding"}, {"measurement": "adhesion of αMβ2 transfectant to iC3b, +DTT +activation", "setting": "iC3b; DTT treatment, activated by mAb CBR LFA-1/2", "result": "++++ (++++: 75-100% of binding by activated wild type transfectant)"}, {"measurement": "adhesion of αMβ2 transfectant to iC3b, +DTT −activation", "setting": "iC3b; DTT treatment, no activating mAb", "result": "++ (++25-50%)"}, {"measurement": "ligand binding (iC3b) of intact αMβ2 heterodimer in K562 stable transfectants", "setting": "iC3b; K562, L15/FBS at 37° C.", "result": "little basal activity"}, {"measurement": "adhesion of αMβ2 transfectant to iC3b, −DTT +activation", "setting": "iC3b; no DTT, activated by mAb CBR LFA-1/2", "result": "++++ (++++: 75-100% of binding by activated wild type transfectant)"}, {"measurement": "adhesion of αMβ2 transfectant to iC3b, −DTT −activation", "setting": "iC3b; no DTT, no activating mAb", "result": "± (+−.: 0-5%)"}]}]}
